Laboratory results: paper PMC7613635 (Nature structural & molecular biology, 2022)
Where a chain is given by its changes, count along the chain named. Values belong to the binder of their own block, whether it stands above or below them.

What was measured:
[1] = target: T1, Gallus gallus FANCD2 (Gallus gallus (chicken), UniProt Q68Y81 1-1439); experiment: cross-linking
[2] = target: T1, Gallus gallus FANCD2; experiment: cryo-EM structure

T1 sequence (Q68Y81 whole entry): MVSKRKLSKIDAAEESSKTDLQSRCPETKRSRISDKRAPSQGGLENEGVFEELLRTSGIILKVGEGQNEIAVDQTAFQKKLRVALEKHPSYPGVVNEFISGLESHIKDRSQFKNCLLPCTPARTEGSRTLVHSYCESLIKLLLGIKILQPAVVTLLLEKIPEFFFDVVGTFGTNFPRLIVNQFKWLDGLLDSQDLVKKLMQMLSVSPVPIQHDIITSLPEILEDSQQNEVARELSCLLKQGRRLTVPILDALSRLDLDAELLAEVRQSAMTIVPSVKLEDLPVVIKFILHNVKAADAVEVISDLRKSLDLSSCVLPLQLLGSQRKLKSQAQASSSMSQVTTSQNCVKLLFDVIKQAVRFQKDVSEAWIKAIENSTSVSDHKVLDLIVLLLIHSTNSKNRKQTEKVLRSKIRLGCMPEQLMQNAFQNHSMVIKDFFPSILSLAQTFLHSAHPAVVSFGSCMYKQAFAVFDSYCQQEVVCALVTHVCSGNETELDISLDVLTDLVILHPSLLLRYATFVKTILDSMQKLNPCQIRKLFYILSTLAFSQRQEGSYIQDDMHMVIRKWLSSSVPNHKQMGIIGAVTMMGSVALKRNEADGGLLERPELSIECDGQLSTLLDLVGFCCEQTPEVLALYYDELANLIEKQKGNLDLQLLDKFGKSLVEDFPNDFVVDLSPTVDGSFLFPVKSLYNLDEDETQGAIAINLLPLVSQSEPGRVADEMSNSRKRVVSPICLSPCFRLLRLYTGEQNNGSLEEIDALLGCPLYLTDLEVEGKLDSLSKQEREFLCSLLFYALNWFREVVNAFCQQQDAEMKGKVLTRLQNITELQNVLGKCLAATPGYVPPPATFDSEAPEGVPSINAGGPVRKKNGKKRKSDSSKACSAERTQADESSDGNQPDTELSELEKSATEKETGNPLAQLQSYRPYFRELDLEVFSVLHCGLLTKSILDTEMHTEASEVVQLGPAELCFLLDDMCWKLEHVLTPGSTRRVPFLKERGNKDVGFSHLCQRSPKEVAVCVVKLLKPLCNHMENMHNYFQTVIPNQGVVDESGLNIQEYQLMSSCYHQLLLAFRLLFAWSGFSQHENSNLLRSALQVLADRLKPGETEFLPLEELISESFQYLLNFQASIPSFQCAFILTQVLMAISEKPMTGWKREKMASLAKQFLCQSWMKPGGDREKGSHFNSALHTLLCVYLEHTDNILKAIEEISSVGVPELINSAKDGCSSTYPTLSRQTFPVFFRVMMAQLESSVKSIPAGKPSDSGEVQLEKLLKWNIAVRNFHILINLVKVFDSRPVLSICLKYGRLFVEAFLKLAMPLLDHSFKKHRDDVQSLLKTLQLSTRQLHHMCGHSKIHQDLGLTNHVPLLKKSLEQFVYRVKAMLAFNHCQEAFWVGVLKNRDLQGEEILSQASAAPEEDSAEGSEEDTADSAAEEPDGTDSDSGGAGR

binding result [1]: binds
B1: Gallus gallus FANCI, wild type (natural protein, Gallus gallus (chicken), UniProt B0I564 1-1338, looked up)
chain: MAQRILQLAAEGSPERLQEALQGLTEGELGDMVTRQALRGRETAALLKGIFKGSPCSQQSGVLRRLQVYKHCVSLVESGDLHVGKVSEIIGLLMLEARQLPGHALAELATLFVEVIKRGSLSNGKSLELFSTVLTALSNSKESLAYGKGELNGEEFKKQLINTLCSSKWDPQCVIHLANMFRDIPLSGEELQFVVEKVLRMFSKLDLQEIPPLVYQLLLLSAKGSKKTVLEGIISFFNQLDKRQKEEQRVPQSADLEVATVPLDQLRHVEGTVILHIVSAINLDQDIGEELIKHLKTEQQKDPGKALCPFSVSLLLSTAVKHRLQEQIFDFLKTSITRSCKDLQILQASKFLQDLCPQQYDVTAVILEVVKNSAFGWDHVTQGLVDLGFSLMESYEPKKSFGGKAAETNLGLSKMPAQQACKLGASILLETFKVHEPIRSDILEQVLNRVLTKAASPVSHFIDLLSNIVVSAPLVLQNSSSRVTETFDNLSFLPIDTVQGLLRAVQPLLKVSMSVRDSLILVLQKAIFSRQLDARKAAVAGFLLLLRNFKILGSLTSSQCSQAIGATQVQADVHACYNSAANEAFCLEILGSLRRCLSQQADVRLMLYEGFYDVLRRNSQLASSIMETLLSQIKQYYLPQQDLLPPLKLEGCIMAQGDQIFLQEPLAHLLCCIQHCLAWYKSTVHLCKGAEDEEEEEDVGFEQNFEEMLESVTRRMIKSELEDFELDKSADFSPSSGVGVKNNIYAIQVMGICEVLIEYNFKIGNFSKNKFEDVLGLFTCYNKLSEILKEKAGKNKSTLGNRIARSFLSMGFVSTLLTALFRDNAQSHEESLAVLRSSTEFMRYAVSVALQKVQQLEEMGQTDGPDGQNPEKMFQNLCKITRVLLWRYTSIPTAVEESGKKKGKSISLLCLEGLLRIFNTMQQLYAARIPQFLQALDITDGDAEEADINVTEKAAFQIRQFQRSLVNQLSSAEDDFNSKETQLLITILSTLSKLLDPGSQQFLQFLTWTVKICKENALEDLSCCKGLLTLLFSLHVLYKSPVSLLRELAQDIHACLGDIDQDVEIESRSHFAIVNVKTAAPTVCLLVLGQADKVLEEVDWLIKRLTILGSDTSEDSTQASNQTQALEKGVILQLGTLLTVFHELVQTALPAGSCVDSLLRSLSKTYAILTSLIKHYIQACRSTSNTVPGRLEKLVKLSGSHLTPQCYSFITYVQNIHSESLSFAEEKKKKKKEDETAVVSTVMAKVLRDTKPIPNLIFAIEQYEKFLIHLSKKSKVNLMQYMKLSTSRDFRINASMLDSVLQEQNTEDAENEPDNNQSGTAEQPDENQEPQKKRRRKK

binding result [2]: binds
B2: phosphomimetic chicken FANCI (I^3D) (natural protein, Gallus gallus (chicken), UniProt B0I564 1-1338, looked up)
chain: B1 chain with S558D, S561D, T567D
